Columns and labels:
[1] = biological target: T1, 小鼠CD150 on mouse spleen cells (mouse, UniProt Q9QUM4 25-343); assay: flow cytometry on mouse spleen cells
T1 construct: This is endogenous CD150 on mouse splenocytes in the flow cytometry assay
T1 sequence: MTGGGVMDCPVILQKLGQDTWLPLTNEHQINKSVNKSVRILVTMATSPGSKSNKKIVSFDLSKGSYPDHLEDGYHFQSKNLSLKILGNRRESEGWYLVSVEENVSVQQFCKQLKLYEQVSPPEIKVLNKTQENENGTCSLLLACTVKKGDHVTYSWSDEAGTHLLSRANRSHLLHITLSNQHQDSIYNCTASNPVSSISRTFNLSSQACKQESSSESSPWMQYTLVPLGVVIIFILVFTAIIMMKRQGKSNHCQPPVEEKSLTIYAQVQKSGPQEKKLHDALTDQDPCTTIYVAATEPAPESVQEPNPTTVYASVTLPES

[2] = biological target: T2, 小鼠CD150胞外段蛋白 (CD150m, hFc removed by TEV cleavage) (mouse, UniProt Q9QUM4 25-242); assay: indirect ELISA, CD150 protein coated at 0.25 μg/ml, HRP anti-rat IgG detection
T2 construct: The monomeric protein was used; In the BLI assay the protein was biotinylated (biotin-CD150); also called CD150蛋白; biotin-CD150
T2 sequence: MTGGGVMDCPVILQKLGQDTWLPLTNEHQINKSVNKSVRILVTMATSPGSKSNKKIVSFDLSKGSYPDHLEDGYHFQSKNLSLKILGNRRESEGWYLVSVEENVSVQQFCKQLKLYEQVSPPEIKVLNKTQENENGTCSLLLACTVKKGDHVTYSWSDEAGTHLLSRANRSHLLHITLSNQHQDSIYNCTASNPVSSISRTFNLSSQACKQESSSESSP

binding result [1]: binds | EC50 [2]: 1.13 µg/mL
B1: 抗CD150单克隆抗体 (produced by rat hybridoma mCD150-mAb-1, CGMCC No.45539) (antibody, V domains shown)
VH: QIQLVQSGPELKKPGESVKISCKASGYTFTDYAMNWVKQAPGNGLKWMGYINTQTGKPTYADDFKQRFVFSLETSASTAYLQINNLNIEDTATYFCTRYNSGNWFAYWGQGTLVTVSS
VL: DIQMTQTPSSMPASLGERVTISCRAGQGISNYLNWYQQKPDGAIKPLIYYTSNLQSGVPSRFSGSGSGTDYSLTISSLEPEDFAMYYCQQYDSSPYTFGAGTKLELK
notes: also called CD150的单抗; 抗CD150抗体

From patent publication CN116769729A (UNIV SCIENCE & TECHNOLOGY CHINA, dated 2023)
